Data: US20240207432A1 (BIOSION, published 2024)
Read-outs that look alike come from different tables or passages of the source.

Experiments:
human TROP2-his protein [1] = molecular target: T1, human TROP2-his protein (human, UniProt P09758 27-274); assay: competitive ELISA: BM1 coated, antibody premixed with biotin human TROP2-his; blocked: binding of TROP2-his to coated BM1; partial only: OD falls from about 1.9 to a plateau of about 1.3
T1 construct: Biotin-labelled in the ELISAs, unlabelled analyte in Biacore; also called biotin-labeled human TROP2-his protein; biotin human Trop2-his
T1 sequence: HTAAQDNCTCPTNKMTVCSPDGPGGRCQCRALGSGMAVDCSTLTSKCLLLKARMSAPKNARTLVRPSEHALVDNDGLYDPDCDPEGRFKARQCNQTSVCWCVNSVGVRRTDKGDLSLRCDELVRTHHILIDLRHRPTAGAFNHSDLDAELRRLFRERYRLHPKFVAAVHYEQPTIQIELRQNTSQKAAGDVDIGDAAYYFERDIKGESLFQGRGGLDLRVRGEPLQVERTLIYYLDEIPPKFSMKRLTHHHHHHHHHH

[2] = molecular target: T2, full length human TROP2 on 293F-TROP2 cells (human, UniProt P09758 27-323); assay: FACS on 293F-TROP2 cells, MFI
T2 construct: also called 293F-TROP2 cells (clone ID #3A8); cell surface TROP2
T2 sequence: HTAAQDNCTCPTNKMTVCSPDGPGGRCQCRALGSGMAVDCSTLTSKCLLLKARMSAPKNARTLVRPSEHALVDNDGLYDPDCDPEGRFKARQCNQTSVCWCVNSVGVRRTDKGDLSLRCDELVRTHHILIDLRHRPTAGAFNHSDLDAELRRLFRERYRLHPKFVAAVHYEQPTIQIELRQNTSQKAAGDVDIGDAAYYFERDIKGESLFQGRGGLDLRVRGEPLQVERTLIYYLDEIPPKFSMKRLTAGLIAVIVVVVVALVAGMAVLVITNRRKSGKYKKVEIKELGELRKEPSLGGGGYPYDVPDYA

[3] = molecular target: T3, cynomolgus TROP2-his protein (cynomolgus monkey, UniProt P09758 27-272 (human entry), limits assumed); assay: indirect ELISA, cynomolgus TROP2-his coated, OD(450-630)
T3 construct: no cleavage site is stated; also called Cynomolgus monkey TROP2-his protein; monkey TROP2
T3 chain: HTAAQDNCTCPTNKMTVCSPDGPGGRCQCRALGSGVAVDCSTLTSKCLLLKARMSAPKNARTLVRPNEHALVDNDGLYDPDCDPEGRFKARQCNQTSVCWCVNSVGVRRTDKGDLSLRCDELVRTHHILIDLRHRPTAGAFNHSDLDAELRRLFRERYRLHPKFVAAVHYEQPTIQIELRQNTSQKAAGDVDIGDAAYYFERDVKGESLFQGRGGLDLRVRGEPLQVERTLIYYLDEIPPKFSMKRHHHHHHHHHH

[4] = molecular target: T2, full length human TROP2 on 293F-TROP2 …; assay: FACS on 293F-TROP2 cells, MFI; remark: listed apart in the source
Procedure: (§1) The 293F-TROP2 cells were harvested from cell culture flasks, washed twice and re-suspended in phosphate buffered saline (PBS) containing 2% v/v Fetal Bovine Serum (FACS buffer). […] Following an incubation of 40 minutes at 4° C. in dark, cells were washed twice and re-suspended in FACS buffer. Fluorescence was measured using a Becton Dickinson FACS Canto II-HTS equipment, and the MFI (mean fluorescence intensity) was plotted against antibody concentration. Data was analyzed using Graphpad Prism software and EC₅₀ values were reported.

human TROP2-his protein [5] = molecular target: T1, human TROP2-his protein; assay: capture ELISA, antibody captured on anti-human IgG Fc coat, biotin human TROP2-his in solution, OD(450-630)
Procedure: (§2) Plates were washed once with wash buffer (PBS+0.05% v/v Tween-20, PBST) and then blocked with 200 μl/well blocking buffer (5% w/v non-fatty milk in PBST) for 2 hours at 37° C. […] Plates containing captured anti-TROP2 antibodies were incubated with biotin-labeled human TROP2-his protein (prepared in house, SEQ ID NO: 67, 56.7 ng/mL in 2.5% w/v non-fatty milk in PBST, 100 μl/well) for 40 minutes at 37° C., washed 4 times, and incubated with streptavidin conjugated HRP (1:10000 dilution in PBST, Jackson Immuno Research, Cat #016-030-084, 100 μl/well) for 40 minutes at 37° C. After a final wash, plates were incubated with 100 μl/well ELISA substrate TMB (Innoreagents, Cat #TMB-S-002) at room temperature. The reaction was stopped in 3-10 minutes at room temperature with 50 μl/well 1M H₂SO₄, and the absorbance of each well was read on a microplate reader using dual wavelength mode with 450 nm for TMB and 630 nm as the reference wavelength. The OD (450-630) values were plotted against antibody concentration. Data was analyzed using Graphpad Prism software and EC₅₀ values were reported.
For the capture ELISA, AffiniPure Goat Anti-Human IgG, Fcγ fragment specific (Jackson Immuno Research, Cat #109-005-098) was used instead of AffiniPure Goat Anti-Mouse IgG, Fcγ fragment specific, 100 μl/well.

human TROP2-his protein [6] = molecular target: T1, human TROP2-his protein; assay: SPR Biacore, antibody captured on anti-human IgG CM5 chip, TROP2-his analyte
Procedure: (§3) Un-reacted moieties on the chip (biosensor) surface were blocked with ethanolamine. […] The antigen-antibody association kinetics was followed for 2 minutes and the dissociation kinetics was followed for 10 minutes. The association and dissociation curves were fit to a 1:1 Langmuir binding model using BIAcore evaluation software.

[7] = molecular target: T3, cynomolgus TROP2-his protein; assay: as above
Procedure: as §3

human TROP2-his protein [8] = molecular target: T1, human TROP2-his protein; assay: as above; remark: listed apart in the source
Procedure: as §3

[9] = molecular target: T3, cynomolgus TROP2-his protein; assay: as above
Procedure: as §3

human TROP2-his protein [10] = molecular target: T1, human TROP2-his protein; assay: capture ELISA, antibody captured on anti-human IgG Fc coat, biotin human TROP2-his in solution, OD(450-630); remark: listed apart in the source
Procedure: as §2
For the Capture ELISA, AffiniPure F(ab′)₂ Fragment Goat Anti-Human IgG, Fcγ fragment specific (Jackson Immunoresearch, Cat #109-006-008) was used instead of AffiniPure Goat Anti-Mouse IgG, Fcγ fragment specific, 100 μl/well.

[11] = molecular target: T3, cynomolgus TROP2-his protein; assay: indirect ELISA, cynomolgus TROP2-his coated, OD(450-630)
human TROP2-his protein [12] = molecular target: T1, human TROP2-his protein; assay: SPR Biacore T200, mAb captured on anti-mouse IgG CM5 chip, TROP2-his analyte
Procedure: as §3

[13] = molecular target: T3, cynomolgus TROP2-his protein; assay: as above
Procedure: as §3

[14] = molecular target: T2, full length human TROP2 on 293F-TROP2 …; assay: FACS on 293F-TROP2 cells, MFI; remark: listed apart in the source
Procedure: The binding activity of the mouse anti-TROP2 antibodies to cell surface TROP2 proteins was tested by flow cytometry (FACS), using Biosion in-house prepared 293F-TROP2 cells (clone ID #3A8) stably expressing full length human TROP2s (uniprot #P09758, SEQ ID NO.: 71) on cell membrane. The 293F-TROP2 cells were prepared by transfecting 293F cells (Thermofisher Inc., Cat #11625019) with a pCMV-T-P plasmid inserted with human TROP2 coding sequence between EcoRI and XbaI sites, following the instruction of lipofectamine 3000 transfection reagent (Thermo Fisher).
as §1

[15] = molecular target: T3, cynomolgus TROP2-his protein; assay: indirect ELISA, cynomolgus TROP2-his coated at 2 ug/mL, OD(450-630)
Procedure: (§4) The anti-TROP2 antibodies of the disclosure were tested for their cross-reaction with cynomolgus TROP2 proteins. Briefly, 96-well micro plates were coated with 100 μl 2 μg/ml cynomolgus TROP2-his proteins (prepared in-house with SEQ ID NO: 70) in carbonate/bicarbonate buffer (pH 9.6) overnight at 4° C. ELISA plates were washed once with wash buffer (PBS+0.05% v/v Tween-20, PBST) and then blocked with 200 μl/well blocking buffer (5% w/v non-fatty milk in PBST) for 2 hours at 37° C. […] After a final wash, plates were incubated with 100 μl/well TMB (Innoreagents) at room temperature. The reaction was stopped 3-10 minutes later at room temperature with 50 μl/well 1M H₂SO₄, and the absorbance of each well was read on a microplate reader using dual wavelength mode with 450 nm for TMB and 630 nm as the reference wavelength. The OD (450-630) values were plotted against antibody concentration. Data was analyzed using Graphpad Prism software and EC₅₀ values were reported.

human TROP2-his protein [16] = molecular target: T1, human TROP2-his protein; assay: capture ELISA, antibody captured on anti-mouse IgG Fc coat, biotin human TROP2-his in solution, OD(450-630)
Procedure: as §2

human TROP2-his protein [17] = molecular target: T1, human TROP2-his protein; assay: competitive ELISA: BM1 coated at 1 ug/mL, antibody premixed with biotin human TROP2-his; blocked: binding of TROP2-his to coated BM1
Procedure: The mouse anti-TROP2 antibodies were tested for epitope binding in a competitive ELISA assay. […] ELISA plates were washed once with wash buffer (PBS+0.05% v/v Tween-20, PBST) and then blocked with 200 μl blocking buffer (5% w/v non-fatty milk in PBST) for 2 hours at 37° C. While blocking, the anti-TROP2 antibodies or controls were diluted with biotin labeled human TROP2-his protein (SEQ ID NO: 67, 34 ng/mL in 2.5% wA non-fatty milk in PBST), starting at 80 nM with a 5-fold serial dilution, and incubated at room temperature for 40 minutes. After plate washing for 4 times, the antibody/TROP2-his protein mixtures were added to the antibody coated plates, 100 μl per well. After incubation at 37° C. for 40 minutes, plates were washed 4 times again using wash buffer. Then the plates were added and incubated with 100 μl Peroxidase Streptavidin (1:10000 dilution in PBST buffer. Jackson Immunoresearch, Cat #016-030-084) for 40 minutes at 37° C. Plates were washed again using wash buffer. Finally, TMB was added and the reaction was stopped using 1M H₂SO₄. The absorbance of each well was read on a microplate reader using dual wavelength mode with 450 nm for TMB and 630 nm as the reference wavelength, and the OD (450-630) values were plotted against antibody concentration. Data was analyzed using Graphpad Prism software and IC₅₀ values were reported.

[18] = molecular target: T3, cynomolgus TROP2-his protein; assay: indirect ELISA, cynomolgus TROP2-his coated at 2 ug/mL, OD(450-630)
Procedure: as §4

B1: chimeric A1E4F7D4 (antibody, human IgG1, kappa, V domains shown)
VH: QVQLQQSGAELAKPGTSVKMSCEASGYSFTTHWIHWMKQRPGQGLEWIGTIFPSNAYAVYNQKFRDRAIMTADRSSTTAYIQLTGLTSEDSAVYYCARASYFDYWGQGTTLTVSS
VL: DILLTQSPATLSVSPGERVTFSCRASQNIGTSIHWFQQRTTGSPRLLIKYASESISGIPSRFSGSGSGTDFTLHINSVESEDIAHYYCQHSHSWPFTFGSGTKLEIQR
notes: also called chimeric antibody A1E4F7D4
B1 gave an IC50 (human TROP2-his protein [1]) of 0.447 nM, an EC50 [2] of 0.36 nM and an EC50 [3] of 0.237 nM. For the same binder, the EC50 [4] was 0.575 nM, the EC50 (human TROP2-his protein [5]) was 0.0979 nM and the Kd (human TROP2-his protein [6]) was 0.185 nM. The koff (human TROP2-his protein [6]) was 0.000194 s⁻¹, the kon (human TROP2-his protein [6]) was 1.05e+06 M⁻¹ s⁻¹ and the Kd [7] was 0.134 nM. For the same binder, the koff [7] was 0.000163 s⁻¹, the kon [7] was 1.22e+06 M⁻¹ s⁻¹ and the Kd (human TROP2-his protein [8]) was 0.0326 nM. It also gave a koff (human TROP2-his protein [8]) of 3.13e-05 s⁻¹, a kon (human TROP2-his protein [8]) of 961000 M⁻¹ s⁻¹ and a Kd [9] of 0.247 nM. It also gave a koff [9] of 0.000171 s⁻¹, a kon [9] of 692000 M⁻¹ s⁻¹ and an EC50 (human TROP2-his protein [10]) of 0.0732 nM. The EC50 [11] was 0.967 nM.

B2: mouse antibody A1B12D2B4E7B3 (antibody, V domains shown)
VH: EVQLQQSGPELVKPGASVKMSCKASGFTFTDYYMNWVKQSHGKSLEWIGYIYPNHGGTGYNQKFKDKATLTVDKSSSTAYMELRSLTSDDSAVYYCARENYGYAMDYWGQGTSVTVSS
VL: DVVMTQTPLSLPVSLGDQASISCRSSQSLVHGDGNTYLHWFLQKPGQSPKLLIYTVSNRFSGVPDRFSGSGSGTDFTLKINRVEAEDLGIYFCSQTTHVPTFGGGTKLEIK
notes: Mouse monoclonal IgG purified from hybridoma supernatant
With B2 the Kd (human TROP2-his protein [12]) was 1.06 nM, the koff (human TROP2-his protein [12]) was 8.92e-05 s⁻¹ and the kon (human TROP2-his protein [12]) was 84000 M⁻¹ s⁻¹. For the same binder, the Kd [13] was 1.12 nM, the koff [13] was 0.000124 s⁻¹ and the kon [13] was 111000 M⁻¹ s⁻¹. It also gave an EC50 [14] of 0.896 nM, an EC50 [15] of 0.578 nM and an EC50 (human TROP2-his protein [16]) of 0.248 nM. The IC50 (human TROP2-his protein [17]) was 1.55 nM.

B3: mouse antibody B1G1F5A3 (antibody, V domains shown)
VH: EVQLQQSGPELVKPGTSVKMSCKASGYSFADYSMNWVRQSHGNSLEWIGYIYPNNGASGFNQKFKGKATLTVDKSSSTAYMELHSLTSEDSAVYYCAREQDNSGYCFDYWGQGTSLTVSS
VL: DVVMTQTPLSLAVRLGDQASISCRSSLNLVHSNGNTFLHWYLQRPGQSPKLLIYKVSNRFSGVSDRFSGSGSGTDFTLKISRVEAEDLGVYFCSQTTHVPTFGGGTKLEIK
notes: as for B2
In the case of B3, the Kd (human TROP2-his protein [12]) is reported as 0.416 nM, the koff (human TROP2-his protein [12]) is reported as 5.58e-05 s⁻¹ and the kon (human TROP2-his protein [12]) is reported as 134000 M⁻¹ s⁻¹. It also gave a Kd [13] of 0.568 nM, a koff [13] of 8.86e-05 s⁻¹ and a kon [13] of 156000 M⁻¹ s⁻¹. It also gave an EC50 [18] of 0.863 nM, an EC50 (human TROP2-his protein [16]) of 0.335 nM and an IC50 (human TROP2-his protein [17]) of 0.516 nM.
